Data published in the supplement of paper PMC5998384.

Assays:
HeLa Kyoto [1] = assay: thermal stability score vs G1/S (z-score of summed log2 fold changes over temperatures); higher = more thermally stable than in G1/S
HeLa Kyoto [2] = assay: melting temperature (median over replicates), in situ; higher = more thermally stable
HeLa Kyoto [3] = assay: solubility in G1/S (NP-40 vs SDS abundance) (log2 ratio); higher = more soluble; conditions: cell cycle stage: G1/S
HeLa Kyoto [4] = assay: solubility change mitosis vs G1/S (difference of NP-40 vs SDS log2 ratios) (log2 ratio difference); higher = more soluble in mitosis
[5] = cell cycle stage: early G1 (4.5 h after nocodazole release)
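Wherever melting temperature (median over replicates), in situ is given: HeLa Kyoto cells synchronized by double thymidine or nocodazole block, proteins quantified by TMT10plex mass spectrometry, three independent biological replicates.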
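Wherever solubility change mitosis vs G1/S (difference of NP-40 vs SDS log2 ratios) is given: synchronized HeLa Kyoto cells (double thymidine block for G1/S, nocodazole release for mitosis), protein amounts in NP-40 versus SDS lysates quantified by mass spectrometry, three biological replicates.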
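Wherever solubility in G1/S (NP-40 vs SDS abundance) is given: HeLa Kyoto cells arrested at G1/S by double thymidine block, proteins quantified by TMT10plex mass spectrometry in mild NP-40 versus SDS extracts, three biological replicates.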
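Wherever thermal stability score vs G1/S (z-score of summed log2 fold changes over temperatures) is given: synchronized HeLa Kyoto cells, proteins quantified by TMT10plex mass spectrometry, three biological replicates, mitosis taken 0.5 h after nocodazole release, G1/S directly after double thymidine block.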

| Sequence | thermal stability score (HeLa Kyoto [1]; [5]) | thermal stability score (HeLa Kyoto [1]; cell cycle stage: mitosis) | melting temperature (HeLa Kyoto [2]; cell cycle stage: G1/S) [°C] | melting temperature (HeLa Kyoto [2]; cell cycle stage: mitosis) [°C] | solubility in G1/S (log2) (HeLa Kyoto [3]) | solubility change mitosis (log2) (HeLa Kyoto [4]) |
| --- | --- | --- | --- | --- | --- | --- |
| MNWNKGGPGTKRGFGFGGFAISAGKKEEPKLPQQSHSAFGATSSSSGFGKSAPPQLPSFYKIGSKRANFDEENAYFEDEEEDSSNVDLPYIPAENSPTRQQFHSKPVDSDSDDDPLEAFMAEVEDQAARDMKRLEEKDKERKNVKGIRDDIEEEDDQEAYFRYMAENPTAGVVQEEEEDNLEYDSDGNPIAPTKKIIDPLPPIDHSEIDYPPFEKNFYNEHEEITNLTPQQLIDLRHKLNLRVSGAAPPRPGSSFAHFGFDEQLMHQIRKSEYTQPTPIQCQGVPVALSGRDMIGIAKTGSGKTAAFIWPMLIHIMDQKELEPGDGPIAVIVCPTRELCQQIHAECKRFGKAYNLRSVAVYGGGSMWEQAKALQEGAEIVVCTPGRLIDHVKKKATNLQRVSYLVFDEADRMFDMGFEYQVRSIASHVRPDRQTLLFSATFRKKIEKLARDILIDPIRVVQGDIGEANEDVTQIVEILHSGPSKWNWLTRRLVEFTSSGSVLLFVTKKANAEELANNLKQEGHNLGLLHGDMDQSERNKVISDFKKKDIPVLVATDVAARGLDIPSIKTVINYDVARDIDTHTHRIGRTGRAGEKGVAYTLLTPKDSNFAGDLVRNLEGANQHVSKELLDLAMQNAWFRKSRFKGGKGKKLNIGGGGLGYRERPGLGSENMDRGNNNVMSNYEAYKPSTGAMGDRLTAMKAAFQSQYKSHFVAASLSNQKAGSSAAGASGWTSAGSLNSVPTNSAQQGHNSPDSPVTSAAKGIPGFGNTGNISGAPVTYPSAGAQGVNNTASGNNSREGTGGSNGKRERYTENRGSSRHSHGETGNRHSDSPRHGDGGRHGDGYRHPESSSRHTDGHRHGENRHGGSAGRHGENRGANDGRNGESRKEAFNRESKMEPKMEPKVDSSKMDKVDSKTDKTADGFAVPEPPKRKKSRWDS [DDX42] | 3.02 | 7.75 | 47.2 | 48.8 | -0.252 | 0.145 |
| MPAGRAARTCALLALCLLGAGAQDFGPTRFICTSVPVDADMCAASVAAGGAEELRSSVLQLRETVLQQKETILSQKETIRELTAKLGRCESQSTLDPGAGEARAGGGRKQPGSGKNTMGDLSRTPAAETLSQLGQTLQSLKTRLENLEQYSRLNSSSQTNSLKDLLQSKIDELERQVLSRVNTLEEGKGGPRNDTEERVKIETALTSLHQRISELEKGQKDNRPGDKFQLTFPLRTNYMYAKVKKSLPEMYAFTVCMWLKSSATPGVGTPFSYAVPGQANELVLIEWGNNPMEILINDKVAKLPFVINDGKWHHICVTWTTRDGVWEAYQDGTQGGSGENLAPYHPIKPQGVLVLGQEQDTLGGGFDATQAFVGELAHFNIWDRKLTPGEVYNLATCSTKALSGNVIAWAESHIEIYGGATKWTFEACRQIN [NPTX1] | 3.28 | 3.79 | 54 | 55.4 | 0.224 | -0.119 |
| MPATLLRAVARSHHILSKAHQCRRIGHLMLKPLKEFENTTCSTLTIRQSLDLFLPDKTASGLNKSQILEMNQKKSDTSMLSPLNAARCQDEKAHLPTMKSFGTHRRVTHKPNLLGSKWFIKILKRHFSSVSTETFVPKQDFPQVKRPLKASRTRQPSRTNLPVLSVNEDLMHCTAFATADEYHLGNLSQDLASHGYVEVTSLPRDAANILVMGVENSAKEGDPGTIFFFREGAAVFWNVKDKTMKHVMKVLEKHEIQPYEIALVHWENEELNYIKIEGQSKLHRGEIKLNSELDLDDAILEKFAFSNALCLSVKLAIWEASLDKFIESIQSIPEALKAGKKVKLSHEEVMQKIGELFALRHRINLSSDFLITPDFYWDRENLEGLYDKTCQFLSIGRRVKVMNEKLQHCMELTDLMRNHLNEKRALRLEWMIVILITIEVMFELGRVFF [RMND1] | -1 | -0.87 | 52.1 | 51.2 | -0.145 | -0.125 |
| MPDENIFLFVPNLIGYARIVFAIISFYFMPCCPLTASSFYLLSGLLDAFDGHAARALNQGTRFGAMLDMLTDRCSTMCLLVNLALLYPGATLFFQISMSLDVASHWLHLHSSVVRGSESHKMIDLSGNPVLRIYYTSRPALFTLCAGNELFYCLLYLFHFSEGPLVGSVGLFRMGLWVTAPIALLKSLISVIHLITAARNMAALDAADRAKKK [CDIPT] | -2.08 | -1.66 | 54.7 | 59.4 | -0.0899 | -0.0289 |
| MPEINTNHLDKQQVQLLAEMCILIDENDNKIGAETKKNCHLNENIEKGLLHRAFSVFLFNTENKLLLQQRSDAKITFPGCFTNTCCSHPLSNPAELEESDALGVRRAAQRRLKAELGIPLEEVPPEEINYLTRIHYKAQSDGIWGEHEIDYILLVRKNVTLNPDPNEIKSYCYVSKEELKELLKKAASGEIKITPWFKIIAATFLFKWWDNLNHLNQFVDHEKIYRM [IDI1] | 0.472 | -0.519 | 54.1 | 53.4 | 0.145 | 0.0595 |
